In this assay the target is T1, MLO-Y4 cell surface proteins (Mus musculus, UniProt P70388).
T1 construct: endogenous in cells; host or cells: MLO-Y4
T1 sequence (P70388 1-1312): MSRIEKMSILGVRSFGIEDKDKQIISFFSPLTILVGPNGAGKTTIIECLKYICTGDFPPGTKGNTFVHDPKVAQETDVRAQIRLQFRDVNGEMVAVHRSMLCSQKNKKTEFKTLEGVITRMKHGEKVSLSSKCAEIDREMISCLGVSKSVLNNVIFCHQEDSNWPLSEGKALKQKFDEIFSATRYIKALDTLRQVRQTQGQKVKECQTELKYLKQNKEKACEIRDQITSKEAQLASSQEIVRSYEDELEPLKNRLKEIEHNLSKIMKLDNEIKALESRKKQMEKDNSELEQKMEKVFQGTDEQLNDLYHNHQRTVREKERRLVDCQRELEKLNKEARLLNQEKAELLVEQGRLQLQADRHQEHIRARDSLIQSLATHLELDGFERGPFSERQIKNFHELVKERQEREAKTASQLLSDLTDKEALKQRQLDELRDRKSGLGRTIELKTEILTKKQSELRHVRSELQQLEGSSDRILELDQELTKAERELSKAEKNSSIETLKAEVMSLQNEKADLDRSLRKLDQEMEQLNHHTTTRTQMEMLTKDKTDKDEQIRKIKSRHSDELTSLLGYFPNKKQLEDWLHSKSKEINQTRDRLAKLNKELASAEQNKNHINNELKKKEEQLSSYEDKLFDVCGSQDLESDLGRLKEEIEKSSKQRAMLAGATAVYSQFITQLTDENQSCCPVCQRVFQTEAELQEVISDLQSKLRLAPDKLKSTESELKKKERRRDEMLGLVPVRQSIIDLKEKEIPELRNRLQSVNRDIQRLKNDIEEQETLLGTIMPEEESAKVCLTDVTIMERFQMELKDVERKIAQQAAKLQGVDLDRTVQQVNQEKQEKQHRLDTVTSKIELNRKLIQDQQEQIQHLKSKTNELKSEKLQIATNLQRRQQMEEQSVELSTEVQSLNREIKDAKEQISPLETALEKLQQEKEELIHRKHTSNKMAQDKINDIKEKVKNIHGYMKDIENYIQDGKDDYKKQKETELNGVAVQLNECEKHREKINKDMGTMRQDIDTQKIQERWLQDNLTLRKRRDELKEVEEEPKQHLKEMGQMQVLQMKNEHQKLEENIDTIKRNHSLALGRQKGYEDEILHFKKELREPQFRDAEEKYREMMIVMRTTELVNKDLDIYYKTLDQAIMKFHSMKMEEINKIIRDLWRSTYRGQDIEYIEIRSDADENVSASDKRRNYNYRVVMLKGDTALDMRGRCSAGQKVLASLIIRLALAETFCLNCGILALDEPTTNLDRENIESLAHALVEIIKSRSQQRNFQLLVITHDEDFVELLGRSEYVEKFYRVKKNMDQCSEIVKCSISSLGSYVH
As to the kind of experiment: Crosslinking/co-immunoprecipitation/mass spectrometry (TMT quantitative proteomics) to identify irisin receptors. It counts as binding. As to conditions: co-precipitated protein Rad50 (RAD50_MOUSE). In short, it runs like this: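 Relative protein abundance came from 6-plex TMT MS3 quantitation on an Orbitrap Fusion Lumos, after in-gel trypsin digestion of Coomassie-stained SDS-PAGE lanes. Input was a Ni-NTA pulldown (250 mM imidazole elution) of lysates from murine MLO-Y4 cells. These cells were treated on ice with His-tagged irisin or adipsin (10 nM, 20 min) in serum-free medium, then crosslinked with 1.5 mM DTSSP for 30 min.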

B1: irisin: secreted cleaved form of FNDC5; recombinant human/mouse irisin with C-terminal his tag produced in HEK293 cells (protein)
chain: DSPSAPVNVTVRHLKANSAVVSWDVLEDEVVIGFAISQQKKDVRMLRFIQEVNTTTRSCALWDLEEDTEYIVHVQAISIQGQSPASEPVLFKTPREAEKMASKNKDEVTMKE
modifications: left off: small tags and cut ends
notes: secreted cleaved form of FNDC5; recombinant human/mouse irisin with C-terminal his tag produced in HEK293 cells
Regarding B1, the TMT signal-to-noise ratio is on record as 10.8209 and the “irisin/adipsin TMT signal-to-noise ratio” value is 0.026.

The record behind these values is US20210063414A1, “METHODS FOR PREVENTING AND/OR TREATING BONE LOSS CONDITIONS BY MODULATING IRISIN” (Dana-Farber Cancer Institute, Inc., priority 2018, published 2021).
